Laboratory results as given in patent US20100166808A1, “Method of Facilitating Intracellular Uptake or Transcellular Transport of Cargo Using Nanocarriers Containing Optimal Surface Densities of Integrin-Specific Ligands” (priority 2008, published 2010).

Columns and labels:
Assay in all cases: Selectivity for human integrin receptors: phage binding to plate-coated purified integrin
Conditions in all cases: FIG. 1; purified integrin coated at 1 μg/mL; phage-displayed ligand, detection at 450 nm
[1] = target: T1, human α5β1 integrin receptor (Homo sapiens, UniProt P05556+P08648)
T1 construct: purchased Chemicon, Temecula, Calif
Experimental: (§1) Nunc MaxiSorp™ 96-well plates are coated with 200 μL of purified human α3β1, α5β1, and αvβ5 integrins (Chemicon, Temecula, Calif.) at 1 μg/mL in Tween 20™/PBS buffer, pH 7.5 (4° C.). After blocking for two hours with 5% (w/v) BSA (bovine serum albumin) in PBS, pH 7.5, phage samples are incubated with integrins in PBS, pH 7.5, supplemented with 2.5% (w/v) non-fat dry milk. After one hour of incubation, unbound phages are removed and the wells are washed five times with Ca^2+- and Mg^2+-containing PBS, pH 7.5.
(§2) Bound phages are quantified spectrophotometrically at λ=450 nm using monoclonal mouse T7 tail fiber antibody (1:5,000) followed by goat anti-mouse IgG horseradish peroxidase:conjugate (1:5,000) and TMB (3,3′,5,5′-tetramethyl-benzidine) as substrate.

α3β1 integrin receptor = target: T2, α3β1 integrin receptor (Homo sapiens, UniProt P05556+P26006)
T2 construct: purchased Chemicon, Temecula, Calif
Experimental: as §1, §2

αvβ3 integrin receptor = tested on: αvβ3 integrin receptor

T2 sequence (P26006 33-872 limits assumed): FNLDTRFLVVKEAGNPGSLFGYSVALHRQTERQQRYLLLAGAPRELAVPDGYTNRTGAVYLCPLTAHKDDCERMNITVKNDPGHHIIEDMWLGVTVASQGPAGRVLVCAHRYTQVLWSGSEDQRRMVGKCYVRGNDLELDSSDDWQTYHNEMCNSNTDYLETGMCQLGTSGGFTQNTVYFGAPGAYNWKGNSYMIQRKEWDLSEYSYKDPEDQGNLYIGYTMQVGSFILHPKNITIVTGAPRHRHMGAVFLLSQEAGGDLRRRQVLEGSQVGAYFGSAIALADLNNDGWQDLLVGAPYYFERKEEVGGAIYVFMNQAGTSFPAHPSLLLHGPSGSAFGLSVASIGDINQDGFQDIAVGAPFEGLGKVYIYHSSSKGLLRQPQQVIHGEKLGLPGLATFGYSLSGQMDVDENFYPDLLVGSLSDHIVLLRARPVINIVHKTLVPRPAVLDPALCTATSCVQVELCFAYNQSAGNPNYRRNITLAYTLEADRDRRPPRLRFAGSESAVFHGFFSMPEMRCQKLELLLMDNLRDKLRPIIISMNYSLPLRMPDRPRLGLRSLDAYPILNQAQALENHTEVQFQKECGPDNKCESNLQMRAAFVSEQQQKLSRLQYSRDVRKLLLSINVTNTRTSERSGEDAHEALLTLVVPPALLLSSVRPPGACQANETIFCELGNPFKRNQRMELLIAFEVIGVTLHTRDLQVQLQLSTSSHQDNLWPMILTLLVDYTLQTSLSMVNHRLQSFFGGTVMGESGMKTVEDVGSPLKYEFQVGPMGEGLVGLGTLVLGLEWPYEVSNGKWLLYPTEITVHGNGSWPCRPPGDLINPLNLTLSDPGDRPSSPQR
T2 sequence (P26006 873-1051 partner limits assumed): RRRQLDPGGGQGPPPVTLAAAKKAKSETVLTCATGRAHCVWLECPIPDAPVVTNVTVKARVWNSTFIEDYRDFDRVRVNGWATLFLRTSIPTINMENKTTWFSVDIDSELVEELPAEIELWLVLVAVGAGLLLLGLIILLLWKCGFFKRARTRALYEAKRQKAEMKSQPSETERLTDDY
T2 sequence (P05556 21-798): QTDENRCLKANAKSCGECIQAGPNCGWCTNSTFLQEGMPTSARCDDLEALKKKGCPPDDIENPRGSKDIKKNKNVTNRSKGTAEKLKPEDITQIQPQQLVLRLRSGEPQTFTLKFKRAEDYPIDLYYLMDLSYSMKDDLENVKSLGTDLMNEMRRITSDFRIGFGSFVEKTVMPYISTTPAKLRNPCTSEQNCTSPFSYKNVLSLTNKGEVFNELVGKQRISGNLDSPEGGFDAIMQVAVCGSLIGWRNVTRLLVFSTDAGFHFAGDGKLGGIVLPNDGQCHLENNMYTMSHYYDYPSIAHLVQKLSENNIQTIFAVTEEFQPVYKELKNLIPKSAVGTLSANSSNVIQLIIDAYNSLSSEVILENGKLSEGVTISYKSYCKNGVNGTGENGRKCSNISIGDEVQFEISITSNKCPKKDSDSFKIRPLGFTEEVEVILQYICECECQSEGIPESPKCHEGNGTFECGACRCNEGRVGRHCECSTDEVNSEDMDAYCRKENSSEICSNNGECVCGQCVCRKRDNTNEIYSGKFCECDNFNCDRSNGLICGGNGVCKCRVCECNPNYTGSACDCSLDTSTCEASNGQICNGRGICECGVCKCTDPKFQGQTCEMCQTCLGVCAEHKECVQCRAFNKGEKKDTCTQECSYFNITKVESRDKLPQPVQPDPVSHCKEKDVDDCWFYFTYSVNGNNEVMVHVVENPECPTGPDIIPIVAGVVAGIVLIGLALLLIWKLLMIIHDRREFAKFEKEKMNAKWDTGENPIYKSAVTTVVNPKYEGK
T1 sequence (P08648 42-894 limits assumed): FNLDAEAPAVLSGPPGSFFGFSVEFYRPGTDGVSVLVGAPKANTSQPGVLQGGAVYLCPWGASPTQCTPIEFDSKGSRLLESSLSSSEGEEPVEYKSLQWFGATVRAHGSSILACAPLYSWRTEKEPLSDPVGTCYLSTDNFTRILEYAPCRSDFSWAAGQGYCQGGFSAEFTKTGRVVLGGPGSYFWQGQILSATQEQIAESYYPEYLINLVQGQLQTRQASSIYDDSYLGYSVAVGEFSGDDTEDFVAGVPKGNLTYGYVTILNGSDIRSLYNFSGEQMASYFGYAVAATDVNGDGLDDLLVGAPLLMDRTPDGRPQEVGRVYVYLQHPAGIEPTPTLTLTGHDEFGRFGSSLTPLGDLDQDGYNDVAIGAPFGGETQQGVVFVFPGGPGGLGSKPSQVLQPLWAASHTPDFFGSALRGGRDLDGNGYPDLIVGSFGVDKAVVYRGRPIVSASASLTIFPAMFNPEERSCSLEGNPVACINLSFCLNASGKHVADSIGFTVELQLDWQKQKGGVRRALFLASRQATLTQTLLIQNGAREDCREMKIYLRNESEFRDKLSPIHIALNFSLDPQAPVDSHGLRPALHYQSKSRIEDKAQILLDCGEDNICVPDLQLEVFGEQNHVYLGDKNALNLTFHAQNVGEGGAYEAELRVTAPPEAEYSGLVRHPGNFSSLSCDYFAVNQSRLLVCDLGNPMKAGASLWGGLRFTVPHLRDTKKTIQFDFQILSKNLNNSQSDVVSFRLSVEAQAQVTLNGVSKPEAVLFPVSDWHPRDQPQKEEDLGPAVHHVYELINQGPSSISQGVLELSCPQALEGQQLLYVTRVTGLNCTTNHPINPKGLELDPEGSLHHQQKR
T1 sequence (P08648 895-1049 partner limits assumed): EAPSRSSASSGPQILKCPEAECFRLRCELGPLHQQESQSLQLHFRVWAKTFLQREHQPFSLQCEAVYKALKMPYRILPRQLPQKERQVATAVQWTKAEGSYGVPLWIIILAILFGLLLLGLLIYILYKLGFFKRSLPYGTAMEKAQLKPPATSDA
T1 sequence (P05556 21-798): as the sequence (P05556 21-798) above

In the case of “RYRGDLGRR [α5β1 integrin-specific ligand peptide]”, the “binding to surface-immobilized human α5β1 integrin receptor” value [1] is reported as “binds most effectively”, the “affinity for α3β1 integrin receptor” value (α3β1 integrin receptor) is reported as “displays affinity” and the “affinity for αvβ3 integrin receptor” value (αvβ3 integrin receptor) is reported as “displays affinity”.
